Earlier results on two substances are cited in article PMC11853434.

Where two headings read alike, the source gives them in different places.

For series [1], the target named is SARS-CoV-2 spike RBD RBD (Severe acute respiratory syndrome coronavirus 2) (UniProt P0DTC2).
Series [2] shares this target. This is another data set of the same source.

With casirivimab, in series [1], the equilibrium dissociation constant (Kd) is 3.37 nM.

With imdevimab, in series [2], the dissociation constant Kd was 45.2 nM.

As usually defined, the Kd is the equilibrium constant for the complex coming apart.
